Test results as given in PMC10841013.

Target: T1, rArgR (Streptococcus suis CZ130302) (UniProt Q3C167)
T1 sequence: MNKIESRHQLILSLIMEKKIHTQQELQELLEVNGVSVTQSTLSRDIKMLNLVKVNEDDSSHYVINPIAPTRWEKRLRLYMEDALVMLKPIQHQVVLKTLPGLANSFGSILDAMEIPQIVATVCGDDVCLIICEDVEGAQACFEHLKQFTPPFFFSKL
Experiment: EMSA

For “TGGATGGTTTGACATGATCTGTCCTCCTTGTAGATTTATACATGATGGGAAACGAGGAGGACCGTACGCTTTCCTGCCTCTCATTTCCTCTTTACATCCATAGTTTAACAGAGCAAAAAAACAAAAACTTGAAAACGCTCGCATTTATGTTGAGAAATTCTTCACATTTTCAACCTTATTTATAAATAATTATCGATTATATCGCCTATATTATGCATAATTCTTTCTATTATATCATTATGTGAATTTT (double strand) [arcA promoter 250 bp]”, the binding was “binds”.
